According to IntAct's records for PubMed 18202720:

B1: Type-1 angiotensin II receptor A (Rattus norvegicus (Rat)), P25095 (parent)
chain: MALNSSAEDGIKRIQDDCPKAGRHSYIFVMIPTLYSIIFVVGIFGNSLVVIVIYFYMKLKTVASVFLLNLALADLCFLLTLPLWAVYTAMEYRWPFGNHLCKIASASVSFNLYASVFLLTCLSIDRYLAIVHPMKSRLRRTMLVAKVTCIIIWLMAGLASLPAVIHRNVYFIENTNITVCAFHYESRNSTLPIGLGLTKNILGFLFPFLIILTSYTLIWKALKKAYEIQKNKPRNDDIFRIIMAIVLFFFFSWVPHQIFTFLDVLIQLGVIHDCKISDIVDTAMPITICIAYFNNCLNPLFYGFLGKKFKKYFLQLLKYIPPKAKSHSSLSTKMSTLSYRPSDNMSSSAKKPASCFEVE

Variants of: B1
Conditions: with angt_human AGT

| effect of a mutation on the interaction | Variant |
| --- | --- |
| decreasing interaction | Q257A |

Variants of: B1
Conditions: with angt_human AGT
Remark: another data set of the same source

| effect of a mutation on the interaction | Variant |
| --- | --- |
| increasing interaction | N294C |
| increasing interaction | C76A;C289A |

Variants of: B1
Conditions: with angt_human AGT
Remark: another data set of the same source

| effect of a mutation on the interaction | Variant |
| --- | --- |
| decreasing interaction | N295C |
| decreasing interaction | C76A;C289A |

Variants of: B1
Conditions: with angt_human AGT
Remark: another data set of the same source

| effect of a mutation on the interaction | Variant |
| --- | --- |
| decreasing interaction | C149A |

Variants of: B1
Conditions: with angt_human AGT
Remark: another data set of the same source

| effect of a mutation on the interaction | Variant |
| --- | --- |
| decreasing interaction | C76A;C289A |

Variants of: B1
Conditions: with angt_human AGT
Remark: another data set of the same source

| effect of a mutation on the interaction | Variant |
| --- | --- |
| decreasing interaction | C76A;C289A;C296A |

Variants of: B1
Conditions: with angt_human AGT
Remark: another data set of the same source

| effect of a mutation on the interaction | Variant |
| --- | --- |
| decreasing interaction | T287A |

Variants of: B1
Conditions: with angt_human AGT
Remark: another data set of the same source

| effect of a mutation on the interaction | Variant |
| --- | --- |
| decreasing interaction | Y292A |

Variants of: B1
Conditions: with angt_human AGT
Remark: another data set of the same source

| effect of a mutation on the interaction | Variant |
| --- | --- |
| decreasing interaction | C76A;C296A |
